Experimental findings from article PMC4895691, “Suppressor of IKKɛ is an essential negative regulator of pathological cardiac hypertrophy” (Nature Communications, 2016) are described below.

In this assay the target is T1, Flag-tagged TBK1 (TANK-binding kinase 1), human, full length (human, UniProt Q9UHD2 1-729).
T1 construct: entire coding region cloned into the EcoRI and XhoI sites of pSicoR-Flag-C1; also called Flag-TBK1; pSicoR-Flag-TBK1; source: HEK293T, transfected, in lysate (co-IP); immunopurified from HEK293T and eluted with FLAG peptide (GST pull-down)
T1 sequence (looked up): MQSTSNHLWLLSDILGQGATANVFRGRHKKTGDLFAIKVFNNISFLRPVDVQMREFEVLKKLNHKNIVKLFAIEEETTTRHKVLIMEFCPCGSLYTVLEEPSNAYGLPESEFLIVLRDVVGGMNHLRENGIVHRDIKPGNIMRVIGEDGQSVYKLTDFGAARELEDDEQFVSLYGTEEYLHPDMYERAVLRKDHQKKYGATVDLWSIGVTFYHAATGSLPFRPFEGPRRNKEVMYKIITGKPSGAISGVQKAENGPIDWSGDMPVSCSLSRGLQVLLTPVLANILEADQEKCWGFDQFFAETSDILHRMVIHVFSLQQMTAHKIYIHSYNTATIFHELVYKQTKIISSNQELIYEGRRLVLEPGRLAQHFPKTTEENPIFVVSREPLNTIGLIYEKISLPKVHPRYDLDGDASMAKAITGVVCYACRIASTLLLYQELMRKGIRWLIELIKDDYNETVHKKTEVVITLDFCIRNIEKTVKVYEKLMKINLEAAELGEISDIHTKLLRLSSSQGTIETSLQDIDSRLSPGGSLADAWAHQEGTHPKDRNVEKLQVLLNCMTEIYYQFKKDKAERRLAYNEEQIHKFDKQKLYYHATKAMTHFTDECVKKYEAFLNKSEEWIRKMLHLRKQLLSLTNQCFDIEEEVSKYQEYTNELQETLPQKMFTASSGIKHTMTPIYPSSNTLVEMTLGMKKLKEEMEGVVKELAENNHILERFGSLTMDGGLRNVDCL
Kind of assay: pull-down; GST-SIKE from E. coli on glutathione-sepharose 4B beads incubated 4 h at 4 °C with immunopurified Flag-TBK1 from HEK293T; washed with IP lysis buffer, eluted with 20 mM reduced glutathione; anti-FLAG blot; GST tag as negative control. Particulars: both partners purified.

B1: GST-SIKE fusion protein, human SIKE (natural protein, UniProt Q9BRV8 1-207, looked up)
chain: MSCTIEKILTDAKTLLERLREHDAAAESLVDQSAALHRRVAAMREAGTALPDQYQEDASDMKDMSKYKPHILLSQENTQIRDLQQENRELWISLEEHQDALELIMSKYRKQMLQLMVAKKAVDAEPVLKAHQSHSAEIESQIDRICEMGEVMRKAVQVDDDQFCKIQEKLAQLELENKELRELLSISSESLQARKENSMDTASQAIK
notes: Suppressor of IKKɛ (SIKE), human; human SIKE gene cloned into pGEX-4T-1; also called pGEX-4T-1-GST-SIKE; source: E. coli Rosetta (DE3), purified on glutathione-sepharose 4B beads
Take B1: the binding result is given as “binds”.
